Measurements published in the Immune Epitope Database (IEDB).

Columns and labels:
HLA-B*39:01 = test: IEDB peptide-MHC binding, purified MHC/competitive/fluorescence; filed as Kd, often an IC50 or EC50 that approximates it; ≥ and ≤ were set here for values at or beyond the usual limits of such assays; conditions: source organism: Cryptosporidium parvum Iowa II
HLA-A*26:02 = test: as above
HLA-B*15:17 = test: as above; conditions: source organism: Cryptosporidium parvum Iowa II
HLA-B*15:01 = test: IEDB peptide-MHC binding, purified MHC/direct/fluorescence; filed as Kd, often an IC50 or EC50 that approximates it; ≥ and ≤ were set here for values at or beyond the usual limits of such assays; conditions: source organism: Cryptosporidium parvum
HLA-B*27:02 = test: as above; conditions: source organism: Cryptosporidium parvum Iowa II
HLA-B*18:01 = test: as above; conditions: source organism: Cryptosporidium parvum
HLA-A*26:03 [1] = test: as above; conditions: source organism: Cryptosporidium parvum Iowa II
HLA-A*03:01 [2] = test: as above; conditions: source organism: Cryptosporidium parvum
HLA-A*69:01 = test: as above; conditions: source organism: Cryptosporidium parvum
HLA-B*73:01 = test: as above
HLA-A*01:01 = test: as above; conditions: source organism: Cryptosporidium parvum
HLA-A*31:01 [3] = test: as above; conditions: source organism: Cryptosporidium parvum
HLA-B*57:01 [4] = test: as above; conditions: source organism: Cryptosporidium parvum
HLA-A*26:01 = test: as above; conditions: source organism: Cryptosporidium parvum Iowa II
HLA-A*11:01 [5] = test: as above; conditions: source organism: Cryptosporidium parvum
HLA-B*27:05 = test: as above; conditions: source organism: Cryptosporidium parvum
HLA-B*48:01 = test: as above; conditions: source organism: Cryptosporidium parvum
HLA-B*08:02 [6] = test: as above; conditions: source organism: Cryptosporidium parvum Iowa II
HLA-B*58:01 [7] = test: as above; conditions: source organism: Cryptosporidium parvum
HLA-B*15:09 = test: as above; conditions: source organism: Cryptosporidium parvum Iowa II
HLA-B*07:02 = test: as above; conditions: source organism: Cryptosporidium parvum
HLA-A*02:01 [8] = test: as above; conditions: source organism: Cryptosporidium parvum
HLA-B*08:03 [9] = test: as above; conditions: source organism: Cryptosporidium parvum Iowa II
HLA-A*68:02 = test: as above; conditions: source organism: Cryptosporidium parvum
HLA-A*26:03 [10] = test: IEDB peptide-MHC binding, purified MHC/competitive/fluorescence; filed as Kd, often an IC50 or EC50 that approximates it; ≥ and ≤ were set here for values at or beyond the usual limits of such assays; conditions: source organism: Human immunodeficiency virus 1
HLA-A*03:01 [11] = test: as above; conditions: source organism: Human immunodeficiency virus 1
HLA-A*31:01 [12] = test: as above; conditions: source organism: Human immunodeficiency virus 1
HLA-A*11:01 [13] = test: as above; conditions: source organism: Human immunodeficiency virus 1
HLA-B*08:02 [14] = test: as above; conditions: source organism: Human immunodeficiency virus 1
HLA-A*30:01 = test: as above; conditions: source organism: Human immunodeficiency virus 1
HLA-B*08:03 [15] = test: as above; conditions: source organism: Human immunodeficiency virus 1
HLA-B*15:42 = test: as above; conditions: source organism: Escherichia coli K-12
HLA-A*32:07 = test: as above; conditions: source organism: Escherichia coli K-12
HLA-B*27:20 = test: as above; conditions: source organism: Escherichia coli K-12
HLA-B*45:06 = test: as above; conditions: source organism: Escherichia coli K-12
HLA-B*40:13 = test: as above; conditions: source organism: Escherichia coli K-12
HLA-B*83:01 = test: as above; conditions: source organism: Escherichia coli K-12
HLA-C*06:02 = test: IEDB peptide-MHC binding, purified MHC/direct/fluorescence; filed as Kd, often an IC50 or EC50 that approximates it; ≥ and ≤ were set here for values at or beyond the usual limits of such assays; conditions: source organism: Escherichia coli K-12
HLA-A*02:07 = test: IEDB peptide-MHC binding, purified MHC/competitive/radioactivity; filed as Kd, often an IC50 or EC50 that approximates it; ≥ and ≤ were set here for values at or beyond the usual limits of such assays; conditions: source organism: Homo sapiens
HLA-A*29:02 = test: as above; conditions: source organism: Homo sapiens
HLA-B*57:01 [16] = test: as above; conditions: source organism: Homo sapiens
HLA-B*58:01 [17] = test: as above; conditions: source organism: Homo sapiens
HLA-A*02:01 [18] = test: as above; conditions: source organism: Homo sapiens
HLA-B*46:01 = test: IEDB peptide-MHC binding, purified MHC/direct/fluorescence; filed as Kd, often an IC50 or EC50 that approximates it; ≥ and ≤ were set here for values at or beyond the usual limits of such assays; conditions: source organism: Neogale vison
HLA-B*15:02 = test: as above; conditions: source organism: Cryptosporidium parvum Iowa II

For RKWGLDFCY, the Kd (HLA-B*39:01) was ≥ 20 µM, the Kd (HLA-A*26:02; source organism: Cryptosporidium parvum Iowa II) was ≥ 20 µM and the Kd (HLA-B*15:17) was ≥ 20 µM. For the same sequence, the Kd (HLA-B*15:01) was 2.08 µM, the Kd (HLA-B*27:02) was 7 µM and the Kd (HLA-B*18:01) was ≥ 20 µM. For the same sequence, the Kd (HLA-A*26:03 [1]) was ≥ 20 µM, the Kd (HLA-A*03:01 [2]) was ≥ 20 µM and the Kd (HLA-A*69:01) was ≥ 20 µM. For the same sequence, the Kd (HLA-B*73:01; source organism: Cryptosporidium parvum) was ≥ 20 µM, the Kd (HLA-A*01:01) was ≥ 20 µM and the Kd (HLA-A*31:01 [3]) was ≥ 20 µM. The Kd (HLA-B*57:01 [4]) was ≥ 20 µM, the Kd (HLA-A*26:01) was ≥ 20 µM and the Kd (HLA-A*11:01 [5]) was ≥ 20 µM. The Kd (HLA-B*27:05) was 0.0555 µM, the Kd (HLA-B*48:01) was ≥ 20 µM and the Kd (HLA-B*08:02 [6]) was ≥ 20 µM. For the same sequence, the Kd (HLA-B*58:01 [7]) was ≥ 20 µM, the Kd (HLA-B*15:09) was ≥ 20 µM and the Kd (HLA-B*07:02) was 9 µM. The Kd (HLA-A*02:01 [8]) was ≥ 20 µM, the Kd (HLA-B*08:03 [9]) was ≥ 20 µM and the Kd (HLA-A*68:02) was ≥ 20 µM.
For IATLYCVHQK, the Kd (HLA-A*26:03 [10]) was ≥ 20 µM, the Kd (HLA-A*03:01 [11]) was ≥ 20 µM and the Kd (HLA-A*26:02; source organism: Human immunodeficiency virus 1) was ≥ 20 µM. For the same sequence, the Kd (HLA-A*31:01 [12]) was ≥ 20 µM, the Kd (HLA-A*11:01 [13]) was 1.71 µM and the Kd (HLA-B*08:02 [14]) was ≥ 20 µM. The Kd (HLA-A*30:01) was ≥ 5 µM and the Kd (HLA-B*08:03 [15]) was ≥ 20 µM.
For RQWGMGFLL, the Kd (HLA-B*15:42) was ≥ 5 µM, the Kd (HLA-A*32:07) was 0.0012 µM and the Kd (HLA-B*27:20) was ≤ 0.0001 µM. For the same sequence, the Kd (HLA-B*45:06) was ≥ 5 µM, the Kd (HLA-B*40:13) was ≤ 0.001 µM and the Kd (HLA-B*83:01) was ≥ 5 µM. For the same sequence, the Kd (HLA-B*73:01; source organism: Escherichia coli O157:H7) was 6 µM and the Kd (HLA-C*06:02) was 1.71 µM.
For KMKEIAEAY, the Kd (HLA-A*02:07) was ≥ 53.4 µM, the Kd (HLA-A*29:02) was 0.0889 µM and the Kd (HLA-B*57:01 [16]) was 2.87 µM. The Kd (HLA-B*58:01 [17]) was 2.03 µM, the Kd (HLA-A*02:01 [18]) was ≥ 78.1 µM and the Kd (HLA-B*46:01) was 0.446 µM. It also gave a Kd (HLA-B*15:02) of 0.184 µM.
